Source: patent US20250186598A1, “RECOMBINANT HUMAN SERUM ALBUMIN-COLLAGEN BINDING DOMAIN FUSION PROTEIN FOR TUMOR-SPECIFIC TARGETING MATRIX, AND USE THEREOF” (Huatong Forturn (China) Co., Ltd., priority 2020, published 2025)

Tested on: cell proliferation
Assay: Recombinant human EGF biological activity assay (cell proliferation method/MTT colorimetric method), Chinese Pharmacopoeia 2015 General Rule 3528
Assay type: cell-based
Description: According to the Pharmacopoeia method, the biological activity of the rHSA/CBD-EGF complex was measured at the cellular level [2015 edition of the Chinese Pharmacopoeia Three General Rules 3528: Recombinant human epidermal growth factor biological activity assay (cell proliferation method/MTT colorimetric method)].

**Q.** For “rHSA/CBD: human CBD (vWF A3 domain) ligated to C-terminal of HSA through connecting peptide (GGGS)2; SEQ ID NO. 3”, which Biological specific activity is on record?
**A.** None
